Test results from patent publication US20040116653A1 (JARROW FORMULAS, published 2004).
Ends that are not written are not given here.

Biological target: human CD4 on cells (MT-2, MT-4 cells; mouse SR.hCD4 cells transfected with human CD4) (human, UniProt P01730 26-458)
Experiment: cell-based or functional assay

Binder	EC50, inhibition of HIV-1IIIB replication in MT-4 cells (p24 ELISA, day 3) [µM]
SGPGTTKRFPETVLARCVKYTEIH (also: biotin conjugated in ELISA, site not given here) [synthetic soluble peptide corresponding to amino acids 51-74 of CD38 (CD3851-74)]	2.2
octameric branched peptide presenting the GPGTTK sequence (GPGTTK MBP) (Each of the eight arms is bound through its C-terminus (Lys 6) to an 8-branching lysine core (Map resin), which cannot be written as a linear chain. The peptide was conjugated with biotin for the rshCD4 ELISA; the site is not stated.) peptide 1: GPGTTK peptide 2: GPGTTK peptide 3: GPGTTK peptide 4: GPGTTK peptide 5: GPGTTK peptide 6: GPGTTK peptide 7: GPGTTK peptide 8: GPGTTK	4.3
